Drawing on patent publication US7601489B2, “Manganese ion regulation of reverse transcriptase activity and methods of modulating same” (The Johns Hopkins University, priority 2002, dated 2009), this text covers kcat for two proteins.

Substrate in the data set: [Mg+2]
Nature of the data set: purified protein, by the assay type. The note with it: fit to Hill equation.

B1: wild-type Ty1 RT (Saccharomyces cerevisiae S288C) (protein)
chain: MESQQLSQHSHISHGSACASVTSKEVHTNQDPLDVSASKTEECEKASTKANSQQTTTPASSAVPENPHHASPQPASVPPPQNGPYPQQCMMTQNQANPSGWSFYGHPSMIPYTPYQMSPMYFPPGPQSQFPQYPSSVGTPLSTPSPESGNTFTDSSSADSDMTSTKKYVRPPPMLTSPNDFPNWVKTYIKFLQNSNLGGIIPTVNGKPVRQITDDELTFLYNTFQIFAPSQFLPTWVKDILSVDYTDIMKILSKSIEKMQSDTQEANDIVTLANLQYNGSTPADAFETKVTNIIDRLNNNGIHINNKVACQLIMRGLSGEYKFLRYTRHRHLNMTVAELFLDIHAIYEEQQGSRNSKPNYRRNLSDEKNDSRSYTNTTKPKVIARNPQKTNNSKSKTARAHNVSTSNNSPSTDNDSISKSTTEPIQLNNKHDLHLGQELTESTVNHTNHSDDELPGHLLLDSGASRTLIRSAHHIHSASSNPDINVVDAQKRNIPINAIGDLQFHFQDNTKTSIKVLHTPNIAYDLLSLNELAAVDITACFTKNVLERSDGTVLAPIVQYGDFYWVSKRYLLPSNISVPTINNVHTSESTRKYPYPFIHRMLAHANAQTIRYSLKNNTITYFNESDVDWSSAIDYQCPDCLIGKSTKHRHIKGSRLKYQNSYEPFQYLHTDIFGPVHNLPKSAPSYFISFTDETTKFRWVYPLHDRREDSILDVFTTILAFIKNQFQASVLVIQMDRGSEYTNRTLHKFLEKNGITPCYTTTADSRAHGVAERLNRTLLDDCRTQLQCSGLPNHLWFSAIEFSTIVRNSLASPKSKKSARQHAGLAGLDISTLLPFGQPVIVNDHNPNSKIHPRGIPGYALHPSRNSYGYIIYLPSLKKTVDTTNYVILQGKESRLDQFNYDALTFDEDLNRLTASYQSFIASNEIQESNDLNIESDHDFQSDIELHPEQPRNVLSKAVSPTDSTPPSTHTEDSKRVSKTNIRAPREVDPNISESNILPSKKRSSTPQISNIESTGSGGMHKLNVPLLAPMSQSNTHESSHASKSKDFRHSDSYSENETNHTNVPISSTGGTNNKTVPQISDQETEKRIIHRSPSIDASPPENNSSHNIVPIKTPTTVSEQNTEESIIADLPLPDLPPESPTEFPDPFKELPPINSHQTNSSLGGIGDSNAYTTINSKKRSLEDNETEIKVSRDTWNTKNMRSLEPPRSKKRIHLIAAVKAVKSIKPIRTTLRYDEAITYNKDIKEKEKYIEAYHKEVNQLLKMKTWDTDEYYDRKEIDPKRVINSMFIFNKKRDGTHKARFVARGDIQHPDTYDTGMQSNTVHHYALMTSLSLALDNNYYITQLDISSAYLYADIKEELYIRPPPHLGMNDKLIRLKKSHYGLKQSGANWYETIKSYLIKQCGMEEVRGWSCVFKNSQVTICLFVDDMILFSKDLNANKKIITTLKKQYDTKIINLGESDNEIQYDILGLEIKYQRGKYMKLGMENSLTEKIPKLNVPLNPKGRKLSAPGQPGLYIDQDELEIDEDEYKEKVHEMQKLIGLASYVGYKFRFDLLYYINTLAQHILFPSRQVLDMTYELIQFMWDTRDKQLIWHKNKPTEPDNKLVAISDASYGNQPYYKSQIGNIFLLNGKVIGGKSTKASLTCTSTTEAEIHAISESVPLLNNLSYLIQELNKKPIIKGLLTDSRSTISIIKSTNEEKFRNRFFGTKAMRLRDEVSGNNLYVYYIETKKNIADVMTKPLPIKTFKLLTNKWIH
Consider B1, for which the kcat (as a rule, the maximal rate divided by the concentration of active sites) (other: Wt. Ty1 RT) came to 0.000447 ± 8.89e-05 s⁻¹.

B2: D211N Ty1 RT (Saccharomyces cerevisiae S288C; D1428N) (protein)
chain: AVKAVKSIKPIRTTLRYDEAITYNKDIKEKEKYIEAYHKEVNQLLKMKTWDTDEYYDRKEIDPKRVINSMFIFNKKRDGTHKARFVARGDIQHPDTYDTGMQSNTVHHYALMTSLSLALDNNYYITQLDISSAYLYADIKEELYIRPPPHLGMNDKLIRLKKSHYGLKQSGANWYETIKSYLIKQCGMEEVRGWSCVFKNSQVTICLFVDNMILFSKDLNANKKIITTLKKQYDTKIINLGESDNEIQYDILGLEIKYQRGKYMKLGMENSLTEKIPKLNVPLNPKGRKLSAPGQPGLYIDQDELEIDEDEYKEKVHEMQKLIGLASYVGYKFRFDLLYYINTLAQHILFPSRQVLDMTYELIQFMWDTRDKQLIWHKNKPTEPDNKLVAISDASYGNQPYYKSQIGNIFLLNGKVIGGKSTKASLTCTSTTEAEIHAISESVPLLNNLSYLIQELNKKPIIKGLLTDSRSTISIIKSTNEEKFRNRFFGTKAMRLRDEVSGNNLYVYYIETKKNIADVMTKPLPIKTFKLLTNKWIH
Consider B2, for which, where the note is “other: D211N Ty1 RT”, the kcat is 0.000444 ± 7.78e-05 s⁻¹.
